Test results as given in a protein production outcome set (Wang et al. 2014).

Experiment: label from the status in PepcDB records

Sequence	protein production
MTNFKDNDGDGTKLHVVMFPWLAFGHMVPYLELSKLIAQKGHKVSFISTPRNIDRLLPWLPENLSSVINFVKLSLPVGDNKLPEDGEATTDVPFELIPYLKIAYDGLKVPVTEFLESSKPDWVLQDFAGFWLPPISRRLGIKTGFFSAFNGATLGILKPPGFEEYRTSPADFMKPPKWVPFETSVAFKLFECRFIFKGFMAETTEGNVPDIHRVGGVIDGCDVIFVRSCYEYEAEWLGLTQELHRKPVIPVGVLPPKPDEKFEDTDTWLSVKKWLDSRKSKSIVYVAFGSEAKPSQTELNEIALGLELSGLPFFWVLKTRRGPWDTEPVELPEGFEERTADRGMVWRGWVEQLRTLSHDSIGLVLTHPGWGTIIEAIRFAKPMAMLVFVYDQGLNARVIEEKKIGYMIPRDETEGFFTKESVANSLRLVMVEEEGKVYRENVKEMKGVFGDMDRQDRYVDSFLEYLVTNR	failed
MSGQPTAVDCLESSGSTVEDVQETPASREKSYGLPVRKGENSLESPAEQAAKDVEIEELTHSEAIAATGSTRKQCPYGGKAPDEPGKLADESEDRKGENTKAIASSPVLVAVDSDSSVELIESPVKFSSANESEKDPPKPDAVNEAAAKE	failed
MSNTYLASMALMGALVVAVVTWMVRGRGWYHYSPGSSTSGRSPTSDRESRFETYADQPMVWVGAFAVLVVGLLVGVVASISGPVETQSIAGLAVAVVGGAGLCGYLLFGVYLSATRRGHPRSLAVAESATVAGVLFLIAVGFQLVGA	failed
HTYKSLFVAPCDAGVKSIKDLKGKSVAFVDPASTSGGLMPTYMVKKETGMMPQQFFGKFTYSGSHDAAELAVKNKTVDAAADNDITYEKMLAKGLITKETNCVVKESDPLPGSPLVYRKDLPAATKKKIRDAILNAH	failed
MRPAHICLAVLVAAVWGVNFTVIEVGLAHFPPLLFSALRFLAAALPAVFFVGRPKVAWKWIVAVGLVLGVAKFGLLFIGMDAGMPAGLSSLVLQIQAVFTALIAFAALGERPTGIRLAGMAVALCGVGLAAVDEGTGGPLGAFALVIGAAVCWGASNVLTRKASPPDPLNFMVWVSTVPVVPLLGLSLLTEGPSADLNALGSLDWQGAGVILYVAWITTVFGFGAWGWLLHRHPASTVAPFSLLVPVFGMSSAALFLGEPIGPMRWGAAALLAGGVALTSLAPGKERSGGPNTLDLRGVGIHEAGR	failed
MTTHDRVRLQLQALEALLREHQHWRNDEPQPHQFNSTQPFFMDTMEPLEWLQWGLIPRMHDLLNNNQPLPGAFAVAPYYEMALATDHPQRALILAELEKLDALFADDASLEHHHHHH	failed
WRTIFNAEPECVMIVATDGTLLDINPAGVAAIEADSVGAVIGKRVYSLVVPECQQAFRQLNESVCQGKQGTLEFEIITCRGNRRWMATHAVPVRNEKDGNLVQLSI	failed
MTYLVTGATGGLGGYALNYLKELVPMSDIYALVRSKEKGADLKAAGFNIRVGDYSDAESMKQAFAGIDRVLFVSGAPGNRQVEHENVINAAKKAGVSYIAYTSFAGADKSTSALAEDHFFTEKVIEKSGIAHTFLRNNWYFENEMPMIGGALSAGKFVYAAENGKVGWALKREYAEVAAKAVAGAGFPEILELSGPLMTYEELTKALKEATGKDFDVISSDDKGFVENLVSVGLPQPVAEMFLSFQHDIKNDQLDVTSDDFEKALGKPLTNRVDALRELLKLEHHHHHH	not failed
MTKKEKGTMMTLAAGLAWGISGISGQYLMSHGVHVNLLTSLRLLITGIFLLSLARSKQKEHLVAAWKQPKFLKQVLLFSIFGLVLNQYAFLRAIHLTNAGTATVLQYMAPILILSIVCILNRQRPTSFEIIAIAMAILGTYMIATHGKLGSLAITPKGLMWGLGSAITYSIYILLPVKLIHEWGSTIVIGSGMFIGGILFSLVTKAWQYPLQINVMSILAYIGIIGIGTIFAYTFFLKGVSIVGAVKGSLLASVEPVSSVFLTVLVLGEIFYPIDLLGMLFIFLAVTLISYKDLIALKKMKRVR	failed
MRINLQSLGCRLNEAELESWAREFQAAGHRLVSETGDADLIVLNSCAVTAEAVRKSRQMIRRTQRLSPRARLVLSGCYATLHGDEAAALGVDLVVSNADKSRLVEIAARELALEAMPEFSTEPGEAALFALGRQRAFVKVQDGCRYRCTFCIVTVARGEERSRLPAEVIREIRRLQAEGVQEVVLTGVHLGGYGSDLGLPLDALIRSILQETEIPRLRLGSLEPWDLPPGFFDLFENPRFMPHLHLPLQSGSDTVLKRMARRCKSEEFARLADHARRQVPDINITTDIIVGFPGETEREWEESLQFIETIGFGDIHVFTYSVREGTKAAAMGGHVPAEIKKERSRVLHELALGQKRALLGRFVGREMPVLWENRRDGADRGYTPNYLRVAIQTPETGLTNRITPVRLVKVDASGEFLWCGPVTLPPAAPADTRWRR	failed
MSTLISTPRTKMSPIRAEDWALFQRLHIEPSVISLCFDKPDERVLRDKFESRLASWTPECDHWLCLTIFDANTQQPIGITGFVLEEDKAEVGYLLLPEFHGQQFGTETLNALLHWAETTHDILRFSATVTEGNVASERVLTKCGFELSQVIPDAYQIGGKHYADKIYSRQK	failed
SEITVSEFLLDFLNKYSENISLATYNNYVSICKNYINPSIGKYKIQDLHPVHIQNYIDKLSYKLNPQSIKIHINILKLAIKRAYRLKLIKENVMDSIKAP	failed
LERMVQTRRGLEIIIDAASTLYDFKSMQRLAEGVLTQLASLLNVDCAGILVLRDAGDELAVLAGSGCYSRFIGTTGHSNSLDPDLRQMVEEAFRRRKHEFADHRTVLYIRTGSGREVVVLLQAERELSDTDRSLVEIFGSRLSIAFDNVILYRQLHEANTQ	failed
MPIKKPCLKLNLDSLNVVRSEIPQMLSANERLKNNFNILYNQIRQYPAYYFKVASNVPTYSDICQSFSVMYQGFQIVNHSGDVFIHACRENPQSKGDFVGDKFHISIAREQVPLAFQILSGLLFSEDSPIDKWKITDMNRVSQQSRVGIGAQFTLYVKSDQECSQYSALLLHKIRQFIMCLESNLLRSKIAPGEYPASDVRPEDWKYVSYRNELRSDRDGSERQEQMLREEPFYRLMIE	failed
MRSLCAGGRAIGLSGPDSRRHHRPQGPSEGASLILPDLSSSIAVGALIYWMLLLTIKHVFADFIFQNKWMAMGKDAKTGWALPLLAHCSVHLVMTTLLMLILAPRYWYIGVIDFLIHLAIDRLKGFLVATYDVTNQDRWFWWLIGTDQALHHLTGFGLAIVLAANP	failed
PPVIRQGPVNQTVAVDGTFVLSCVATGSPVPTILWRKDGVLVSTQDSRIKQLENGVLQIRYAKLGDTGRYTCIASTPSGEATWSAYIEVQEFGVPVQPPRPTDPNLIPSAP	not failed
VLTPRHIATLFTKLIPFKKNDKILDLCCGTGAFLIAGMNKLLSLKGIDAQNVKSNQLLGFEINPTMYICAISNMLFRGDGKSKIYNMDSINDDKVNKIISESAPTIGFINPPYSGKENKEDPTPKEITFLKKC	failed
MIIFFLLIIIFLITALLFLLIKELHLSTASNYIMTIFLSLIILFIILKPEVCISASISGAKLFFFSVFPYVFPFLIITNLIICYDGIEIYSKLLGPILCLPQRLPKKASIVLMVSFLCGYPLGAKYAADLYENDIISFSTFERLVNIASNPGPLFIIGAVGTSMLKNKYLGYILLISCYLSCIAMGIILPNKKDDFSTKKTKWNVSEKHSIGTALKTSTENAVKVILQVMSFIIIFSVIIGILKQSVIFKNSEASFIKTFILGIVEMTNGSSMLSSSSFPIELKVITISFLSSFGGLCVIAQIYSFIGKYKISYLKFISLKVIQGVISSIICFLLFKFLYVNNTISTFNANNNFLSPSHFFTVAVILAVLPILIYKIKKTI	failed
MLEQSLRHYYQLVLVDPILPALRDRITPLSITWLSGIFGLLFIPFVLLDKPYIAISFLLLSGYLDTLDGSLARFQNRASDFGSAMDIVIDRIVEFSAVLALYLFDPQHRATLAILMLGSILLCITSFLVVGIFSNNTTQKSFYYSPGIMERAEAFLFFIFMTLFSSCFNFLAALFCFLVCLTALIRLFEFKKSVQAPS	failed
GDIGGIAQITSSLFLGRGSVASNRHLLQARGITCIVNATIEIPNFNWPQFEYVKVPLADMPHAPIGLYFDTVADKIHSVSRKHGATLVHCAAGVSRSATLCIAYLMKFHNVCLLEAYNWVKARRPVIRPNVGFWRQLIDYERQLFGKSTVKMVQTPYGIVPDVYEKESRHLMPYWG	failed
MSISSHDVGRTYPTTDPYLVTAEKIRELATALGDNAPAYRGDDPIAPPTFAMVLASRAWEALFDDEQLDLRLEHMIHTDQSFHWIRPLHEGDEVTAALTITSVRTRGNTDIIGINVSLDHVDGEHLGNATSTLWHTRPEGNA	failed
MSIKILSESEIKQVANSYQAPAVLFANPKNLYQRRAKRLRDLAQNHPLSDYLLFAADIVESQLSTLEKNPLPPQQLEQLNTIEPLNAKTFKRNSIWREYLTEILDEIKPKANEQIAATIEFLEKASSAELEEMANKLLAQEFNLVSSDKAVFIWAALSLYWLQAAQQIPHNSQVENAENLHHCPVCGSLPVASMVQIGTSQGLRYLHCNLCESEWNLVRAQCTNCNSHDKLEMWSLNEELALVRAETCGSCESYLKMMFQEKDPYVEPVADDLASIFLDIEMEEKGFARSGLNPFIFPAEEA	failed
MSTGATIVIDLGKTLSKVSLWDLDGRMLDRQVRPSIPLEIDGIRRLDAPDTGRWLLDVLSRYADHPVTTIVPVGHGAGIAALTDGRLAFPPLDYEQSIPEAVMADYRSQRDPFARTGSPALPDGLNIGSQLWWLDQLHPDVMANATLLPWAQYWAWFLTGRAVSEVTSLGCHSDLWDPQDGDFSPMAKRLGWAARFAPIVRAGDTVGALLPAIAERTGLSPDVQVLAGLHDSNAALLAARGFAEIADNEATVLSTGTWFIAMRLPATPVDTATLPEARDCLVNVDVHGRPVPSARFMGGREIETLIEIDTRRVDIKPDQPALLAAVPEVLRHGRMILPTLMRGFGPYPHGRFAWINRPEDWFERRAAACLYAALVADTALDLIGSTGRILVEGRFAEADVFVRALASLRPDCAVYTANAHNDVSFGALRLIDPGLRPQGELVRIEPLDTGSWADLDTYRNRWQAEVEAAKVEPITLEHHHHHH	not failed
MKKLAISIGDINSIGLEILVRSHEELSKICTPFYFIHESLLNKALKLLNLKLFNAKIVAFKDDKDYEFNFIKKENSLEIYSFCLPLGFKVDENFEIQAGEIDAKSGLYGFLSFKAASYFVYEKHAHALLTLPIHKKAWEDAGLKYKGHTDALRDFFKKNAIMMLGCKELFVGLFSEHIPLAKVSKKITFKNLSIFLKDFYKETHFKKMGLLGFNPHAGDYGVIGGEEEKIMEKAIAFVNAFLHSKKDEKFFKKALKDENLQKELLLNFKGKGVYLPYPLVADTAFTKTGLKNCNRLVAMYHDLALAPLKALYFDKSINVSLNLPIIRVSVDHGTAFDKAYKNAKINTKSYFEAAKFAINLHSKA	not failed
MNFIVIGAGNIGSGIAQNLLEDGHEVEIADKSRESLNRIRGRNPKIRTREFDVMDRSAYRMLNDYDASVSALPGSIGMQFLKNVAKMGKIVVDVSYMEEDPYDLNGIAQSAGTIIVPDMGFAPGLTNAIVGYFSADLDQIRNVKIYVGGIPEKPVPPLDYTITWSVEG	failed
